Results taken from patent publication US9493780B2, “Chloroplast transit peptide” (Dow AgroSciences LLC, priority 2012, dated 2016).
“Also recorded” adds a separate entry of the source.

B1: TraP14: chimeric chloroplast transit peptide (SEQ ID NO:3): N-terminus from Dunaliella salina GPDH, C-terminus from D. salina EPSPS (protein)
chain: MILGSSPTLPHASHPARPGPARPISVNDVVPHVYSAPLSVARRSCSKSSIRSTRRLQTTVCS
modifications: chimeric TraP14 fusion protein
B2: TraP5 v2: chloroplast transit peptide fused to dgt-28 (protein)
chain: MQLLNQRQALRLGRSSASKNQQVAPLASRPASSLSVSASSVAPAPACSAPAGAGRRAVVVRA
modifications: Chloroplast Transit Peptide

Experiments:
[1] = test system: chloroplasts of the maize protoplast; experiment: Maize protoplast transient assay of TraP14-GFP (microscopy); format: cell-based, Zea mays; conditions: TraP14-GFP fusion; microscopy after 12 hours of incubation
From the text: The Trap14v2 chimeric chloroplast transit peptide sequence (SEQ ID NO:8) were cloned upstream of the green fluorescent protein gene and incorporated into construct pDAB109902 (FIG. 4) for testing via the maize protoplast transient in planta assay. The resulting constructs contained a single plant transcription unit (PTU). The first PTU was comprised of the Zea mays Ubiquitin 1 promoter (ZmUbi1 promoter; Christensen, A., Sharrock R., and Quail P., (1992) Maize polyubiquitin genes: structure, thermal perturbation of expression and transcript splicing, and promoter activity following transfer to protoplasts by electroporation, Plant Molecular Biology, 18:675-689), TraP-green fluorescent protein fusion gene (TraP14-GFP; U.S. Pat. No. 7,678,893), and Zea mays Peroxidase 5 3′ untranslated region (ZmPer5 3′UTR; U.S. Pat. No. 6,384,207). The constructs were confirmed via restriction enzyme digestion and sequencing.
Seed of Zea mays var. B104 were surface sterilized by shaking vigorously in 50% Clorox (3% sodium hypochlorite), containing 2-3 drops of Tween 20, for about 20 minutes. […]
Transfection of 100 to 500 μl of protoplasts (1−5×10^5) was completed by adding the protoplasts to a 2 ml microfuge tube containing about 40 μg of plasmid DNA (pDAB106597), at room temperature. […] Fluorescence of GFP was viewed by microscopy after 12 hours of incubation. […]

T2 Arabidopsis = T2 Arabidopsis events response to glyphosate applied postemergence, visual % injury; format: in vivo, Arabidopsis thaliana; conditions: T2 Arabidopsis single copy events
From the text: The second generation plants (T2) of selected T1 Arabidopsis events which contained low copy numbers of the dgt-28 transgene were further characterized for glyphosate tolerance. Glyphosate was applied as described previously. The response of the plants is presented in terms of % visual injury 2 weeks after treatment (WAT). […] An arithmetic mean and standard deviation are presented for each construct used for Arabidopsis transformation. The range in individual response is also indicated in the last column for each rate and transformation. Wild-type, non-transformed Arabidopsis (cv. Columbia) served as a glyphosate sensitive control. In the T2 generation hemizygous and homozygous plants were available for testing for each event and therefore were included for each rate of glyphosate tested. Hemizygous plants contain two different alleles at a locus as compared to homozygous plants which contain the same two alleles at a locus. Variability of response to glyphosate is expected in the T2 generation as a result of the difference in gene dosage for hemizygous as compared to homozygous plants. The variability in response to glyphosate is reflected in the standard deviation and range of response.

| Molecule | translocation of GFP into chloroplasts [1] | tolerance to glyphosate (T2 Arabidopsis) |
| --- | --- | --- |
| B1 | accumulated within the chloroplasts; also recorded: successfully targeted GFP to maize chloroplasts | – |
| B2 | – | did not provide robust tolerance to glyphosate |
